Values quoted from earlier work, collected in article PMC4501269 (Biochemistry, 2011).
pKd: −log10 of the molar value. Where two headings read alike, the source gives them in different places. Each block holds one molecule with its values, some of them ahead of it.

Experiments:
[1] = tested on: PPARγ
[2] = target: SRC-1 (Homo sapiens) (UniProt Q15788)
[3] = target: SRC-1 (Homo sapiens) (UniProt Q15788); remark: listed apart in the source
[4] = target: SRC-1 (Homo sapiens) (UniProt Q15788); assay: fluorescence polarization
[5] = target: SRC-2 (Homo sapiens) (UniProt Q15596); assay: fluorescence cross-correlation spectroscopy
[6] = target: SRC-2 (Homo sapiens) (UniProt Q15596); assay: fluorescence cross-correlation spectroscopy; remark: listed apart in the source
[7] = target: SRC-2 (Homo sapiens) (UniProt Q15596); assay: fluorescence cross-correlation spectroscopy; remark: listed apart in the source

Chain of SRC-1 (Homo sapiens) (Q15788 2-1441): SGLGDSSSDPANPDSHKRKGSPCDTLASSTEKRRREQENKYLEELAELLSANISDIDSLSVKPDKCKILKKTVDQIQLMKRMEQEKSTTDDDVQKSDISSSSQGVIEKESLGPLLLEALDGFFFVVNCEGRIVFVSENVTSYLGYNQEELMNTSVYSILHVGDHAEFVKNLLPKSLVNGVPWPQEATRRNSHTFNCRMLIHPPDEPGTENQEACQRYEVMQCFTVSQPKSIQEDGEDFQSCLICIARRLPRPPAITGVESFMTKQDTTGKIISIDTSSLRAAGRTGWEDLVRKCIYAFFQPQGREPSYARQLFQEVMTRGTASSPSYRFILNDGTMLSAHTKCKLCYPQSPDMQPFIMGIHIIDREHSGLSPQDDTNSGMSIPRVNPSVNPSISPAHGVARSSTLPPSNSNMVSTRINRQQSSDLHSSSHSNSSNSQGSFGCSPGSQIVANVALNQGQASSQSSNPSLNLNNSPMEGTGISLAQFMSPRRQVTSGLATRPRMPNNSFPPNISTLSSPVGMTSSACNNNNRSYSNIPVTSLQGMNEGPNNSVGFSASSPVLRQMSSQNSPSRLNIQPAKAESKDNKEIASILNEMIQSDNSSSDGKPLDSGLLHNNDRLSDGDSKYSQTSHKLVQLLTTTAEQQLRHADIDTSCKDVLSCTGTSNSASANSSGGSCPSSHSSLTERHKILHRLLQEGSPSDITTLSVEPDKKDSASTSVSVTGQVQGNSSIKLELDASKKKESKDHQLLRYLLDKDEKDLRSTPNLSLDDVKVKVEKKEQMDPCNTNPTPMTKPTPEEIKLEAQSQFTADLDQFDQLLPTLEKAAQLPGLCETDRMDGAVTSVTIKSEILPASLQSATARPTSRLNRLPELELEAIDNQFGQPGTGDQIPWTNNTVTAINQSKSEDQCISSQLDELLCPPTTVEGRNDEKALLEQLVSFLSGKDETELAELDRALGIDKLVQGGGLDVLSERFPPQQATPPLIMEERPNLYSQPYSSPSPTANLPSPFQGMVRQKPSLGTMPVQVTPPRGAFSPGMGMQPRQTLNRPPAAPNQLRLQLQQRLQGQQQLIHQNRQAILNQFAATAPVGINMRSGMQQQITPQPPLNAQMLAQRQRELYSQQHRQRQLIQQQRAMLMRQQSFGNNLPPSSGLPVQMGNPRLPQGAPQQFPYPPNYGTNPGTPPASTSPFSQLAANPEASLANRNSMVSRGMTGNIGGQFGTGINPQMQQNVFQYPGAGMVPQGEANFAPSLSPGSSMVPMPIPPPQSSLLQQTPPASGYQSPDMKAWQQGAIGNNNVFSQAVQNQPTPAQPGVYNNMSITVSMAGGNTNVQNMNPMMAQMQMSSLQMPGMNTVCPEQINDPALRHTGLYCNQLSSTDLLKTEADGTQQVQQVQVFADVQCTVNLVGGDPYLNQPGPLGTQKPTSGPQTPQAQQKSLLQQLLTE
Chain of SRC-2 (Homo sapiens) (Q15596 2-1464): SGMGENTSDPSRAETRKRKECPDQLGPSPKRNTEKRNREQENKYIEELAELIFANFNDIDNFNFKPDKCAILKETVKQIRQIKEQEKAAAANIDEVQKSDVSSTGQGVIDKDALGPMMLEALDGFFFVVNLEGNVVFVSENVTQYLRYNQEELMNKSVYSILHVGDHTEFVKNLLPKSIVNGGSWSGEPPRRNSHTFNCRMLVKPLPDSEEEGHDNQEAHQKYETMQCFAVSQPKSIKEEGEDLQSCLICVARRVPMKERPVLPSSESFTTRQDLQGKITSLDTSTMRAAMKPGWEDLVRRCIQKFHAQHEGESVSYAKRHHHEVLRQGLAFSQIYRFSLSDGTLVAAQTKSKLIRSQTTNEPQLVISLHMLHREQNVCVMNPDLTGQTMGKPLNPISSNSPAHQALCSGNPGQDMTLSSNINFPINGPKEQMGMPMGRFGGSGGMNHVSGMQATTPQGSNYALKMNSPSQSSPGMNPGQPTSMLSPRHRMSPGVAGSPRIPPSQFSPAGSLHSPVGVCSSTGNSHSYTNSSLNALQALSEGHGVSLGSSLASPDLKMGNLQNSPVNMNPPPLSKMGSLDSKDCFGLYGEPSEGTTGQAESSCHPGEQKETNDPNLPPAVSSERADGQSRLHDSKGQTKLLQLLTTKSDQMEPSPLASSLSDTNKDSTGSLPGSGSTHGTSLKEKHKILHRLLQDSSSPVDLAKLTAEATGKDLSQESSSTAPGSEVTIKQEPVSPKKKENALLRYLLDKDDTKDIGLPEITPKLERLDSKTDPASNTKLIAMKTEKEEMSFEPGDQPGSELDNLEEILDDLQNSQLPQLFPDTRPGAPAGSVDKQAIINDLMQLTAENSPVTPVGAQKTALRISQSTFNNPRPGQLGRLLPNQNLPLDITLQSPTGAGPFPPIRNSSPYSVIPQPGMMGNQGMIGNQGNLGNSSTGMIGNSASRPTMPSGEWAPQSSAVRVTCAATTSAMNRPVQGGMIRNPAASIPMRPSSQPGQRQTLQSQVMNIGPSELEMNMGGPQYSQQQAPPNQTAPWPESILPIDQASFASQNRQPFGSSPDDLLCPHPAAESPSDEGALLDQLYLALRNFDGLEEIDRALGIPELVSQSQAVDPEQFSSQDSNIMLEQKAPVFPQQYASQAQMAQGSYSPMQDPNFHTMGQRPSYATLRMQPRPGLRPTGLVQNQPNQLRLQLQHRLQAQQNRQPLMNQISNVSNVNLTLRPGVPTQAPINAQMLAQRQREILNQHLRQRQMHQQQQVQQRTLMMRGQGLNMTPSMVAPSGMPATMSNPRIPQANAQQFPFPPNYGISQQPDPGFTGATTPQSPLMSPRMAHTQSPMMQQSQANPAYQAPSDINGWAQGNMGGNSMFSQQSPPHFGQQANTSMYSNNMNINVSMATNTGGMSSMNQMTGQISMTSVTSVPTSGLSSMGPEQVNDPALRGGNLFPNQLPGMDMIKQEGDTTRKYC
Chain of estrogen receptor (P03372 whole entry): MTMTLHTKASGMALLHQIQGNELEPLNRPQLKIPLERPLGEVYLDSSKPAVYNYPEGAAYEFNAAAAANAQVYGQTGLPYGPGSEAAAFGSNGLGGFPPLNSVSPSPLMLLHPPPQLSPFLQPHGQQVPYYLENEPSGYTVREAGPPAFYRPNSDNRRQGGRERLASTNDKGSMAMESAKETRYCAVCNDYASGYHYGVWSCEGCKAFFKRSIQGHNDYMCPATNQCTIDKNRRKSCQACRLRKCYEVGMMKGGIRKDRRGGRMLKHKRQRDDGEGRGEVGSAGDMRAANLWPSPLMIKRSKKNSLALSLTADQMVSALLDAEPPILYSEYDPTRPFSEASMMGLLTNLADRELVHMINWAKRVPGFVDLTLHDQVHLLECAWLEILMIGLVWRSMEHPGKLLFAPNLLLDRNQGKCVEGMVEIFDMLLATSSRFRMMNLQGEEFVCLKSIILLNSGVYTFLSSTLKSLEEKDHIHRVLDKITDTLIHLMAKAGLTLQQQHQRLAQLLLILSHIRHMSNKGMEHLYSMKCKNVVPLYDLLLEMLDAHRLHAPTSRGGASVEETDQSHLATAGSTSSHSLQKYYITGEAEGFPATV
Chain of PPARγ (from UniProt P37231) (P37231 whole entry): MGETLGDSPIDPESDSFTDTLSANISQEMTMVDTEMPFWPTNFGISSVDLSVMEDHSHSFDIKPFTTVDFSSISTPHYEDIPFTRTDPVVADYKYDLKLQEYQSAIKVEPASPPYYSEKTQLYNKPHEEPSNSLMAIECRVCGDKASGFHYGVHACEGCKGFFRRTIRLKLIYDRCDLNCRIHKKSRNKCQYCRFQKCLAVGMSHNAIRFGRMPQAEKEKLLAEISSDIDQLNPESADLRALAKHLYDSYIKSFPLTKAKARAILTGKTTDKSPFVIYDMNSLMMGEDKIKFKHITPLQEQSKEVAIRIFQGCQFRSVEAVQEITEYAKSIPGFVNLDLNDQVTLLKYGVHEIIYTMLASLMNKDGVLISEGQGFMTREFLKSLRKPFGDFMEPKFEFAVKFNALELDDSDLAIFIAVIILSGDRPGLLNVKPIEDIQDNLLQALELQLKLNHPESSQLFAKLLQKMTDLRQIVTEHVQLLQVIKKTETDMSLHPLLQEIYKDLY
Chain of estrogen receptor LBD (P03372 311-547): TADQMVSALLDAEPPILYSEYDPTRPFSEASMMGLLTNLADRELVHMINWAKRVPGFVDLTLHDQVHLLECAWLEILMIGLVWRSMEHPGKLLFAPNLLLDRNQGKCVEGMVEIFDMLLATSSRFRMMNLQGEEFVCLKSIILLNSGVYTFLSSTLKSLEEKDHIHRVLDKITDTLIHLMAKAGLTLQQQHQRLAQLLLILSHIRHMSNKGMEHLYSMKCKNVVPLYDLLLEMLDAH

Molecule: COc1ccc2c(c1)c(CC(=O)O)c(C)n2C(=O)c1ccc(Cl)cc1 [IDM, indomethacin]
increase in the affinity of PPARγ for SRC-1 [1]: 30 fold

pKd [2]: 6.02
pKd [3]: 4.47
Molecule: PPARγ (from UniProt P37231)

pKd [4]: 7.52
pKd [5]: > 8.22
pKd [6]: 6.70
pKd [7]: < 5.52
Molecule: estrogen receptor (from UniProt P03372)

pKd [4]: 7.52
Molecule: estrogen receptor LBD (from UniProt P03372)
